From the nanobody polyreactivity screen of Harvey et al. (2022)

Experiment: yeast display, Sf9 membrane polyspecificity reagent, FACS + sequencing; frameworks hold sequencing errors
Procedure, shortened: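 In a synthetic yeast display library (Saccharomyces cerevisiae BJ5465), nanobody expression was induced with galactose for 36–48 hours. FACS gates were set low and high (top ~1%) using anti-HA fluorescence for expression and streptavidin fluorescence for binding of the Sf9 membrane reagent. Each polyreactivity label is drawn from the gate of origin.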

Row | Sequence | polyreactivity (PSR sort gate)
1 | HVQLVESGGGLVQAGGSLRLSCAASGSIFGNYVMGWYRQAPGKERELVAAISWSGGTNYADSVKGRFTISRDNAKNTVYLQMKSLKPEDTAVYYCAALSVWSYYTYYYWGQGTQVTVSS | high polyreactivity
2 | HVQLVESGGGLVQAGGSLRLSCAASGSIFNSNGMGWYRQATGKERELVAAITGGGSTNYADSVKGRFTISRDNAKNTVYLQMNSLKPEDTAVYYCAARPLRTDWAYYYWGQGTQVTVSS | low polyreactivity
3 | HVQLVESGGGLVQAGGSLRLSCAASGSIFPRYSMGRYRQAPGKEMELVAAITSGGSTYYADSVKGRFTISRDNAKNTVYLQMNSLKPEDTAVYYCAATIYRPKGGTYGWYGYDYWGQGTQVTVSS | high polyreactivity
4 | HVQLVESGGGLVQAGGSLRLSCAASGSIFSGNAMGWYRQAPGKERELVAAISYSDGSTYYADSVKGRFTISRDNAKNTVYLQMNSLKPEDTAVYYCAADGYPYTYDYWGQGTQVTVST | low polyreactivity
5 | HVQLVESGGGLVQAGGSLRLSCAASGSIYGGNTMGWYRQAPGKERELVAAISRSGGSTYYADSVKGRFTISRDNAKNTVYLQMNSLKREDTAVYYCKRKQAGHGQGYDYWGQGTQVTVSS | high polyreactivity
6 | HVQLVESGGGLVQAGGSLRLSCAASGSTFAAYAMGWYRQAPGKERELVAAITKRGGTTYYADSVKGRVTISRDHAKNSVYLQMNSLKPEDTAVYYCAKTRYYSALLHYDYDTWGQGTQVTVST | high polyreactivity
7 | HVQLVESGGGLVQAGGSLRLSCAASGSTFDVYAMGWYRQAPGKERELVAAISRSGGSTYYADSVKGRFTISRDNAKNTVYLQMNSLKPEDTAVYYCNARLARWGSYEYNYWGQGTQVTVSS | low polyreactivity
8 | HVQLVESGGGLVQAGGSLRLSCAASGSTFKRNTMGWYRQAPGKERELVAAISRSGGSTYYADSVKGRFTISRDNAKNTVYLQMNSLKPEDTAVYYCNAYVSSYVGSRSYGLSPYDYWGQGTQVTVSS | high polyreactivity
9 | HVQLVESGGGLVQAGGSLRLSCAASGSTFKRYAMGGDRQAPGKEREFVAGISWRGGSTYYADSVKGRFTISRDNAKNTVYLQMNSLKPEDTAVYFCAARSFSNIGYHGYGYWGQGTQVTVSS | high polyreactivity
10 | HVQLVESGGGLVQAGGSLRLSCAASVTFSFYAMGWYTQSPGKERELVAAISSIGDSTYYADSVKGRFTISRDNAKNTVYLQMNSLKPEETAVYYYGVIAVDAYDYYTYDYWRQGTQVTVSS | high polyreactivity
11 | HVQLVESGGGLVQAGGSLRLTCAASGFSYGYYAMGWYRQAPGKEWELVATISSGDNTYYADSVKGRFTSSRDNAKNTVYLQMNSLKPEDTAVYYCAARYPHYFVRGGYWGQGTQVTVSS | high polyreactivity
12 | HVQLVESGGGLVQAGGSLRLTCAASGLTFSSYAMGWYRQAPGKERELVADITYRGGSTYYADSVKGRFTISRDNEKNTVYLQMNSLKPEDTAVYYCAARKKYRFDYWGQGTQVTVSS | high polyreactivity
13 | HVQLVESGGGLVQARGSLRLSCAASGRTSWYYAMGWYRQAPGKEKELVAAITASGGSTYADSVKGRFTISRDNAKNTVYLEMNSLKPEDTAVYYCAAERPYSRVGYYYWGQGTQVTVSS | high polyreactivity
14 | HVQLVESGVGLVQAAGSLRLSCAASGLIFRWYAMGWYRQAPVKERELFAAISRGGSTNYADSVKGRFTISRDNAKNTVYLQMNSLKPEDTAVYYCATVYSVRYGGRYYYAFGLYDYWGQGTQVTVSS | high polyreactivity
15 | HVQLVESVGGLVQAGGSLRLRCAASGLTFRCNGMGWYRQEPGKETELVAAISSSGGSTYYADSVKGRFTISRDNAKNTVYLQLNSLKPEDTGVYFCARLVFYSQGVREMDYWGQGTQVTGSS | high polyreactivity
16 | IIQAGGSLRLSCAASGRTFSGYAMGWYRPAPGKERELIADITSGGSTYYADSVKGRFTISRDNAKNTVYLQMNSLKPEDTAVYYCNKVYPVVLYEPQYDYWGQGTQVTVSS | low polyreactivity

Row | Sequence | polyreactivity (PSR sort gate)
17 | KDQLVESGGGLVQAGGSLRLSGAASGRTFASNDMVWYRQAPGKERELVADINNGARTYYADSVKGRFTISRDNAKNTVYLQMNSLKPEDSAVYYCNARPWYWWECRYDYWGQGTQVTVSS | high polyreactivity
18 | KLQLVDSGGGLVQAGGSLRLSCAASGSTIRYYAMGWYRQAPGKERELVAAITISGGGTYADSVKGRFTISRDNAKNTVYLEMNSLKPEDTAVYYCAATYYGFLYRSIGDYWGQGTQVTVSS | low polyreactivity
19 | KVQLQESGGGLVQAGGSLRPSCAASGSITDGVPMGWDRQAPGEERELVATTVLGATTNYADSVKGRFTISRGNAKNTVYLLMNSLKPEETAVYYCAAPLRYDKGFSYWRQGTQVTVSS | low polyreactivity
20 | KVQLVESGGGIVQAGGSLRLSCAASGSTFVRNAMGWYRQAPGKERELVAGITFGGGSTYYADSVKGRFTISRDNAKNTVYLQMNSLKAEDTAVYFCAKRDYSPWPAAGYPYDYDYWGQGTQVTVSS | low polyreactivity
21 | KVQLVESGGGLVQAGGSLRISCAASGSNFGRYAMGWYRQAPGKERELVAAISARGGSTYYADSVKGRFTISRDNAKNTVYLQMNSLKPEDTAFYYCNVLVRYSDQSSDSWGQGTQVTVSS | high polyreactivity
22 | KVQLVESGGGLVQAGGSLRLSCAASGINCYYYAMGWYRQAPGKERELVAVISSSGGRTYYADSVKGRFTISRDNSKNTVYLQMNSLKPEDTAVYYCAARGYGATYDYWGQGTQVTVSS | high polyreactivity
23 | KVQLVESGGGLVQAGGSLRLSCAASGITLSYYAMGWYSQAPGKEMELVAAINRGGRTYYADSVTGRFTISRDNAKNTVYLQMNSLKPEDTAVYYCATAYASSQKYYYWGQGTQVTVSS | high polyreactivity
24 | KVQLVESGGGLVQAGGSLRLSCAASGRTFLRYAMGWYRQAPGKERELVAAISTSGGSTYYADSVKGRFTISRDNAKNTVYLQMNSLKPEDTAVYYCAATSTSYTYTHSYGYWGQGTQVTVSS | low polyreactivity
25 | KVQLVESGGGLVQAGGSLRLSCAASGSIFTHNAMGWYRQAPGKERELVAAISSGGSTNYADSVKGRFTISRDNAKNTVYLQMNSLKPEDTAVYYCAKSIDGWYWRRRRYDYWGQGTQVTVSS | low polyreactivity
26 | KVQLVESGGGLVQAGGSLRLSCAASGSIIGGYAMGWYRQAPGKVRELVAAINRSGGRTYYADSVKGRFTFSRDNAKNTVYLQMNSLKPEDTAVYYCAADNFRGKYDYLGQGTQVTVSS | high polyreactivity
27 | KVQLVESGGGLVQAGGSLRLSCAASGSTFYYYAMGWNRQAPGKERELVAVITLSGGSTYYADSVKGRFTISRDNAKNTFYLQMNSLKPEDTAVFYCAAEHWEVWNSYYYEYDYWGQGTLVTVSS | high polyreactivity
28 | KVQLVESGGGLVQAGGSLRVRCAASGFTFGVYAMGWYRQAPGKEREFVAVITWRGGRTYYADSVKGRFTISRDNAQNTVYLQMNSLKPEDTGVYYCNARPRIYLTLYYWGQGTQVSVSS | high polyreactivity
29 | KVQLVESRGGLVQAGGSLRLSCAASGIIFYTYAMGWNRQAPGKERELVASISWDVDSTNYADSVKGRFTISRDNAKNTVYLQMNSLKPEYTAVYYCAVDYTFDSYWYWVDYYEYGYWGQGTQVTVSS | high polyreactivity
30 | KVQLVETGGGLVQAGGSLRLSCAASGSILIYNAMGWYRQAPGKERELVAGISRRGASTYYADSVKGRFTNSRDNAKKTVYLQMKSLKPEDTAVYYCAALGKYIVAWSGDFWGQGTQVTVSS | low polyreactivity
31 | LGQVVESGGGLVQAGGSLRLSCAASGRIFHRNTMGWYRQAPGKEWELVAAISGSTGRTYYADSVKGRFPISRDNAKTTVYLQMNSLKPEDTAVYYCAKVYRRSGSVARYDYGGQGTQVTVSS | high polyreactivity
32 | LLMGWYRQAPGEERELVAGINDGASTNYADSVKGRFTISRDNARNTVYLKMNSLKPGDTAVYYCAVWQPVLIWFYYWGQGTQVTVSS | high polyreactivity
